# T1: HuNoV GII.2 VLP (VP1 of HuNoV GII.2 OSN201926, baculovirus-expressed virus-like particle) (human norovirus GII.2 (OSN201926), …)
# T1 construct: VP1 gene cloned from HuNoV GII.2 (OSN201926), expressed by the baculovirus method as a VLP and purified by ultracentrifugation; also called HuNoV GII.2 VP1; HuNoV GII.2 VLP1
# T1 chain: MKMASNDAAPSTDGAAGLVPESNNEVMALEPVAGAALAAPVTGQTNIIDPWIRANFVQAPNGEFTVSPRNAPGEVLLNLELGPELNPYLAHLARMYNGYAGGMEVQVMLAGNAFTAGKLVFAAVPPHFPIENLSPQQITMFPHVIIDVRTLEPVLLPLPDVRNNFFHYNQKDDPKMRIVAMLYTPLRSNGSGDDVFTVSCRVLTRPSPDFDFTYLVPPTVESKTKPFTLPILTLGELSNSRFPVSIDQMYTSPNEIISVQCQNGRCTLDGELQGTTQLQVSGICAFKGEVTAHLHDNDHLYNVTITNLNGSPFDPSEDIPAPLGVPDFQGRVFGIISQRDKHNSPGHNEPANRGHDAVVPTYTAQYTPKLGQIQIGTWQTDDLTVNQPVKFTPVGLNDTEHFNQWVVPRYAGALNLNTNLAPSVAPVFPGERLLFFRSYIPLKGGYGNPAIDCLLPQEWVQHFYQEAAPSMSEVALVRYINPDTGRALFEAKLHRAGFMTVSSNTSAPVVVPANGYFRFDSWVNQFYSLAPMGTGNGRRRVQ
# B1: YGI-1B6 (VHH)
# VHH: EVQLVESGGGLVQAGGSLRLSCAASGRTFSNYFMGWFRQAPGKEREFVAAISWSGGSTYYTDSVKGRFTISRDNAKNTMYLQMNTLKPEDTAVYYCAAEKASLSGPSYGLGLDFSRYDYWGQGTQVTVSS
# notes: Llama VHH expressed in E. coli from pMEK222 (FLAG tag and His tag), purified on Co resin; also called VHH antibody YGI-1B6; not shown: FLAG tag and His tag from vector pMEK222; not clear whe
# B2: YGI-1H3 (VHH)
# VHH: EVQLVESGGGLVQAGGSLRLSCVVSGRSFSSLAMGWFRQAPGNQREFVAAISWSGGSSYYGDSVKGRFTISRDDAKNTVYLQMDSLKPEDTADYYCATEIVPKYDTAAYYKSQGAFGSWGQGTQVTVSS
# notes: Llama VHH expressed in E. coli from pMEK222 (FLAG tag and His tag), purified on Co resin; also called VHH antibody YGI-1H3; not shown: FLAG tag and His tag from vector pMEK222; not clear whe
# B3: YGI-1C5 (VHH)
# VHH: EVQLVESGGGLVQTGGSLRLSCAASGLTFSNYAMGWFRQAPGKEREFVATINWSSSRTIYADSVKGRFTISREDAKNTVYLQMNSLKPEDTAVYYCAAEGGAPRWTTGTRRNDYRYWGQGTQVTVSS
# notes: Llama VHH expressed in E. coli from pMEK222 (FLAG tag and His tag), purified on Co resin; also called VHH antibody YGI-1C5; not shown: FLAG tag and His tag from vector pMEK222; not clear whe
# B4: YGI-1F4 (VHH)
# VHH: EVQLVESGGGLVQAGGSLRLSCGASGRTFSNYAMGWFRQAPGKEREFVAAINWSGDKTDYADSVKGRFTISRDNVKNFVALQMNSLKPEDTAVYYCATEGGFPQFGSNLKRTSFGLWGQGTQVTVSS
# notes: Llama VHH expressed in E. coli from pMEK222 (FLAG tag and His tag), purified on Co resin; also called VHH antibody YGI-1F4; not shown: FLAG tag and His tag from vector pMEK222; not clear whe
# B5: YGI-1E10 (VHH)
# VHH: EVQLVESGGGLVQAGGSLRLSCTAPKSIASFNSVGWYRQAPGKQRELVATITRSRTTNYADSARGRFTISRDNTKNMMFLQMNSLKPEDTAVYYCNARDIVPVFQTYWGQGTRVTVSS
# notes: Llama VHH expressed in E. coli from pMEK222 (FLAG tag and His tag), purified on Co resin; also called VHH antibody YGI-1E10; not shown: FLAG tag and His tag from vector pMEK222; not clear whe
# Biological target: T1, HuNoV GII.2 VLP (VP1 of HuNoV GII.2 …)
# Test: ELISA of E. coli periplasm fractions on HuNoV GII.2 VLP; clones selected by binding to the antigen
row,Binder,binding result
1,B1,binds
2,B2,binds
3,B3,binds
4,B4,binds
5,B5,binds

# — patent WO2023182244A1 (dated 2023)
